Values quoted from earlier work in publication PMC2650229.

Target: ERp57 b' domain (Homo sapiens) (UniProt P30101)
Sequence of UniProt P30101 (P30101 241-360): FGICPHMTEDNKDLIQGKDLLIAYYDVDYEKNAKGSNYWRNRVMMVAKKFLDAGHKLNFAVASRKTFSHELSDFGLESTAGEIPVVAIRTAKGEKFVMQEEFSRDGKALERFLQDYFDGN

- Kd: 2600 nM
Substance: calreticulin P-domain (from UniProt P27797)
